PMC11619291, “Functional and structural analyses of IMP-27 metallo-β-lactamase: evolution of IMP-type enzymes to overcome Zn(II) deprivation” (Microbiology Spectrum, 2024)

Key:
Assay in all cases: purified protein
Settings in all cases: no added Zn(II), 20 mM HEPES pH 7.5, 30°C
[1] = test system: CC1=C(C(=O)O)N2C(=O)[C@@H](NC(=O)[C@H](N)c3ccccc3)[C@H]2SC1
[2] = test system: CC(=O)OCC1=C(C(=O)O)N2C(=O)[C@@H](NC(=O)Cc3cccs3)[C@H]2SC1; assay type: biochemical, Serratia marcescens
Description: (§1) steady-state hydrolysis, UV-VIS spectrophotometry on IMP-1

[3] = test system: CC(C)(O/N=C(\C(=O)N[C@@H]1C(=O)N2C(C(=O)[O-])=C(C[n+]3ccccc3)CS[C@H]12)c1csc(N)n1)C(=O)O; assay type: biochemical, Serratia marcescens
Description: as §1

[4] = test system: CC1(C)S[C@@H]2[C@H](NC(=O)Cc3ccccc3)C(=O)N2[C@H]1C(=O)O; assay type: biochemical, Serratia marcescens
Description: as §1

[5] = test system: CC1(C)S[C@@H]2[C@H](NC(=O)[C@H](N)c3ccccc3)C(=O)N2[C@H]1C(=O)O; assay type: biochemical, Serratia marcescens
Description: as §1

[6] = test system: CO/N=C(\C(=O)N[C@@H]1C(=O)N2C(C(=O)O)=C(COC(C)=O)CS[C@H]12)c1csc(N)n1; assay type: biochemical, Serratia marcescens
Description: as §1

[7] = test system: C[C@@H](O)[C@H]1C(=O)N2C(C(=O)O)=C(SCCN=CN)C[C@H]12; assay type: biochemical, Serratia marcescens
Description: as §1

[8] = test system: C[C@@H](O)[C@H]1C(=O)N2C(C(=O)O)=C(S[C@@H]3CN[C@H](C(=O)N(C)C)C3)[C@H](C)[C@H]12; assay type: biochemical, Serratia marcescens
Description: as §1

[9] = test system: CC(=O)OCC1=C(C(=O)O)N2C(=O)[C@@H](NC(=O)Cc3cccs3)[C@H]2SC1; assay type: biochemical, Morganella morganii
Description: (§2) steady-state hydrolysis, UV-VIS spectrophotometry on IMP-27

[10] = test system: CC(C)(O/N=C(\C(=O)N[C@@H]1C(=O)N2C(C(=O)[O-])=C(C[n+]3ccccc3)CS[C@H]12)c1csc(N)n1)C(=O)O; assay type: biochemical, Morganella morganii
Description: as §2

[11] = test system: CC1(C)S[C@@H]2[C@H](NC(=O)Cc3ccccc3)C(=O)N2[C@H]1C(=O)O; assay type: biochemical, Morganella morganii
Description: as §2

[12] = test system: CC1(C)S[C@@H]2[C@H](NC(=O)[C@H](N)c3ccccc3)C(=O)N2[C@H]1C(=O)O; assay type: biochemical, Morganella morganii
Description: as §2

[13] = test system: CO/N=C(\C(=O)N[C@@H]1C(=O)N2C(C(=O)O)=C(COC(C)=O)CS[C@H]12)c1csc(N)n1; assay type: biochemical, Morganella morganii
Description: as §2

[14] = test system: C[C@@H](O)[C@H]1C(=O)N2C(C(=O)O)=C(S[C@@H]3CN[C@H](C(=O)N(C)C)C3)[C@H](C)[C@H]12; assay type: biochemical, Morganella morganii
Description: as §2

IMP-1 (Serratia marcescens)
Km [1]: 18.5 ± 2.9 µM
kcat [1]: 75.1 s⁻¹
kcat/Km [1]: 4.06e+06 M⁻¹ s⁻¹
Km [2]: 1.62 ± 0.21 µM
kcat [2]: 82.5 ± 5.9 s⁻¹
kcat/Km [2]: 5.11e+07 M⁻¹ s⁻¹
Km [3]: 38.1 ± 1.6 µM
kcat [3]: 14.2 ± 0.8 s⁻¹
kcat/Km [3]: 373000 M⁻¹ s⁻¹
Km [4]: 144 ± 6 µM
kcat [4]: 367 ± 38 s⁻¹
kcat/Km [4]: 2.56e+06 M⁻¹ s⁻¹
Km [5]: 41.8 ± 7.6 µM
kcat [5]: 37.6 ± 3.1 s⁻¹
kcat/Km [5]: 899000 M⁻¹ s⁻¹
Km [6]: 3.44 ± 0.12 µM
kcat [6]: 26 ± 1.8 s⁻¹
kcat/Km [6]: 7.55e+06 M⁻¹ s⁻¹
Km [7]: 48.6 ± 10.2 µM
kcat [7]: 87.6 ± 4.5 s⁻¹
kcat/Km [7]: 1.88e+06 M⁻¹ s⁻¹
Km [8]: 83.3 ± 16.1 µM
kcat [8]: 25.1 ± 4.4 s⁻¹
kcat/Km [8]: 301000 M⁻¹ s⁻¹

IMP-27 (Morganella morganii)
Km [1]: 5.47 ± 0.53 µM
kcat [1]: 1.19 s⁻¹
kcat/Km [1]: 217000 M⁻¹ s⁻¹
Km [9]: 9.23 ± 0.88 µM
kcat [9]: 290 ± 39 s⁻¹
kcat/Km [9]: 3.14e+07 M⁻¹ s⁻¹
Km [10]: 27.5 ± 3.4 µM
kcat [10]: 2.02 ± 0.3 s⁻¹
kcat/Km [10]: 73200 M⁻¹ s⁻¹
Km [11]: 218 ± 28 µM
kcat [11]: 20.3 ± 2.2 s⁻¹
kcat/Km [11]: 93200 M⁻¹ s⁻¹
kcat [12]: > 7.25 s⁻¹
kcat/Km [12]: 28800 M⁻¹ s⁻¹
Km [13]: 6.57 ± 0.96 µM
kcat [13]: 50.7 ± 6.6 s⁻¹
kcat/Km [13]: 7.72e+06 M⁻¹ s⁻¹
Km [14]: 4.21 ± 0.29 µM
kcat [14]: 6.79 ± 0.8 s⁻¹
kcat/Km [14]: 1.63e+06 M⁻¹ s⁻¹
